Test [1] deals with T1, rHuman ErbB2/Fc Chimera, CF (Cat# 1129-ER) (human, UniProt P04626 23-652).
T1 construct: Bought from R&D Systems; also called human epidermal growth factor 2 receptor (ErbB2)
As to the kind of experiment: Multispot ECL; Fab 130 nM. As to the method: (§1) An 150 μl aliquot of 1% Bovine Serum Albumin (BSA) in Tris-buffered Saline Tween (TBST) was added to each well and allowed to incubate for 30 min at 20° C. followed by washing and tap drying to completely remove any residual solution. Subsequently, a 12.5 μl aliquot of 1% BSA TBST was added to each well followed by the addition of a 12.5 μl aliquot of a purified Fab. The plate was sealed and incubated for 1 hour at 20° C. with shaking.
(§2) Detection antibodies were prepared by individually conjugating both goat anti-human Kappa light chain polyclonal antibody (K3502-1MG, Sigma-Aldrich) and goat anti-human Lambda light chain polyclonal antibody (L1645-1 mL, Sigma-Aldrich) with Ruthenium (II) tris-bipyridine-(4-methylsulfone)-N-hydroxysuccinimide (SULFO-TAG NHS-ester, Meso Scale Discovery) according to the manufacturer's instructions. TAG-detection antibody at 25 μl was added to each well and allowed to incubate for 1 hour at 20° C. with shaking. Finally, 15 μl of Read Buffer P with Surfactant (Cat # R92PC-1, Meso Scale Discovery) was added to each well. The electrochemiluminescence was measured using a Sector Imager 2400 (Meso Scale Discovery). Data was analyzed by comparing the ECL signals for an antigen to the blank of each well. A signal to blank ratio of 4 or more was considered a “Hit” Fab.
(§3) To confirm a “Hit” from the initial Multispot ECL screening, a Fab concentration dependent titration was carried out to determine the Fab-antigen binding affinity.

Test [2] concerns the target T2, rHuman EGF R/Fc Chimera, CF (Cat# 344-ER) (human, UniProt P00533 25-645).
T2 construct: Bought from R&D Systems; also called epidermal growth factor receptor (EGF R)
As to the kind of experiment: Multispot ECL; Fab 130 nM. As to the method: as §1, §2, §3

Test [3] addresses T3, rHuman HGF R/c-MET/Fc Chimera, CF (Cat# 358-MT/CF) (human, UniProt P08581 25-932).
T3 construct: Bought from R&D Systems; also called HGF R/Fc; hepatocyte growth factor receptor (HGF R/c-Met)
As to the kind of experiment: Multispot ECL; Fab 130 nM. Here is the method: as §1, §2, §3

The target of test [4] is T4, rHuman Notch-1/Fc Chimera, CF (Cat# 3647-TK) (human, UniProt P46531 19-526).
T4 construct: Bought from R&D Systems
In words: Multispot ECL; Fab 130 nM. Here is the method:
as §1, §2, §3

Test [5] has as its target T5, rHuman CD44/Fc Chimera, CF (Cat# 3660-CD) (human, UniProt P16070 21-220).
T5 construct: Bought from R&D Systems
In words: Multispot ECL; Fab 130 nM. As to the method: as §1, §2, §3

Test [6] addresses T6, rHuman IGF-1 sR, (IGF-1 sR), CF (Cat# 391-GR) (human, UniProt P08069 31-932).
T6 construct: Bought from R&D Systems; also called insulin-like growth factor-1 soluble receptor
As to the kind of experiment: Multispot ECL; Fab 130 nM. As to the method: as §1, §2, §3

Test [7] concerns the target T7, rHuman Erythropoietin R/Fc Chimera, CF (Cat# 963-ER) (human, UniProt P19235 25-250).
T7 construct: Bought from R&D Systems; also called EPO R/Fc; Epo R/Fc chimera
T7 sequence (looked up): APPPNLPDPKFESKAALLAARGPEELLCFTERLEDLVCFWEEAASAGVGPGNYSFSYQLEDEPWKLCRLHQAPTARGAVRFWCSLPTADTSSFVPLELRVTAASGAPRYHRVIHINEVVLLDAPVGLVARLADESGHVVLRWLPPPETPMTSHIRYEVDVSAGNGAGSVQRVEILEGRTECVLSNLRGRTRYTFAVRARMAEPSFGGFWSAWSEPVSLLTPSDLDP
In words: Multispot ECL; Fab 130 nM. Here is the method:
as §1, §2, §3

The target in test [8] is T8, Recombinant Human DLL4 (Cat# 1506-D4/CF) (human, UniProt Q9NR61 27-529).
T8 construct: Bought from R&D Systems; also called rHuman DLL4; hDLL4
As to the kind of experiment: Multispot ECL; Fab 130 nM. As to the method:
as §1, §2, §3

Test [9] addresses T1, rHuman ErbB2/Fc Chimera, CF (Cat# …). As to the kind of experiment: Multispot ECL; Fab 2.0 nM. Here is the method: as §1, §2, §3
For test [10], the target named is T2, rHuman EGF R/Fc Chimera, CF (Cat# …). In words: Multispot ECL; Fab 2.0 nM. As to the method:
as §1, §2, §3

The target of test [11] is T3, rHuman HGF R/c-MET/Fc Chimera, CF (Cat# …). As to the kind of experiment: Multispot ECL; Fab 2.0 nM. Here is the method:
as §1, §2, §3

Test [12] concerns the target T4, rHuman Notch-1/Fc Chimera, CF (Cat# …). As to the kind of experiment: Multispot ECL; Fab 2.0 nM. As to the method: as §1, §2, §3
Test [13] concerns the target T5, rHuman CD44/Fc Chimera, CF (Cat# …). In words: Multispot ECL; Fab 2.0 nM. Here is the method:
as §1, §2, §3

Test [14] addresses T6, rHuman IGF-1 sR, (IGF-1 sR), CF (Cat# …). In words: Multispot ECL; Fab 2.0 nM. As to the method: as §1, §2, §3
The target of test [15] is T7, rHuman Erythropoietin R/Fc Chimera, CF …. As to the kind of experiment: Multispot ECL; Fab 2.0 nM. As to the method: as §1, §2, §3
The target in test [16] is T8, Recombinant Human DLL4 (Cat# 1506-D4/CF). As to the kind of experiment: Multispot ECL; Fab 2.0 nM. As to the method: as §1, §2, §3
For test [17], the target named is T5, rHuman CD44/Fc Chimera, CF (Cat# …). As to the kind of experiment: Multispot ECL; Fab 8.1 nM. As to the method: as §1, §2, §3
The target of test [18] is T7, rHuman Erythropoietin R/Fc Chimera, CF …. As to the kind of experiment: Multispot ECL; Fab 8.1 nM. Here is the method: as §1, §2, §3
For test [19], the target named is T8, Recombinant Human DLL4 (Cat# 1506-D4/CF). As to the kind of experiment: Multispot ECL; Fab 8.1 nM. As to the method: as §1, §2, §3

B1: Fab VH1-8_IGHD2-2*01_IGHJ6*01 & L12_IGKJ1*01 (Fab, V domains shown)
VH: QVQLVQSGAEVKKPGASVKVSCKASGYTFTSYDINWVRQATGQGLEWMGWMNPNSGNTGYAQKFQGRVTMTRNTSISTAYMELSSLRSEDTAVYYCARGGYCSSTSCYADYYYYYGMDVWGQGTTVTVSS
VL: not shown
Turning to B1, the ECL signal in test [1] was determined as 1530; in test [2], 1750; in test [3], 1880; in test [4], 1760; in [5] it was 1750; in test [6] it was 1970. Further, the ECL signal in test [7] turned out to be 2150; in test [8] it was 7740; in test [9], 382; in test [10], 424; in test [11], 356; in test [12], 539. Further, the ECL signal in test [13] is 447; in test [14], 367; in test [15] it was 433; in test [16] it was 605; in test [17], 528; in test [18], 660. For the same molecule, in [19], the ECL signal amounted to 1550.
